Data from the supplement of paper PMC7877785.
± gives the uncertainty stated by the source.

Assay: self-splicing fitness, log relative to wild type (ln ratio); higher = more splicing; Tetrahymena group I intron in knt gene, E. coli kanamycin selection, DiMSum; sequences stand for … in CUCUCU…GGAGGGAAAAGUUAUCAGGCAUGCACCUGGUAGCUAGUCUUUAAACCAAUAGAUUGCAUCGGUUUAAAAGGCAAGACCGUCAAAUUGCGGGAAAGGGGUCAACAGCCGUUCAGUACCAAGUCUCAGGGGAAACUUUGAGAUGGCCUUGCAAAGGGUAUGGUAAUAAGCUGACGGACAUGGUCCUAACCACGCAGCCAAGUCCUAAGUCAACAGAUCUUCUGUUGAUAUGGAUGCAGUUCACAGACUAAAUGUCGGUCGGGGAAGAUGUAUUCUUCUCAUAAGAUAUAGUCGGACCUCUCCUUAAUGGGAGCUAGCGGAUGAAGUGAUGCAACACUGGAGCCGCUGGGAACUAAUUUGUAUGCGAAAGUAUAUUGAUUAGUUUUGGAGUACUCGUGGUCG
In short: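 Six replicate transformations of E. coli BL21(DE3) with a pET-22b(+) library were grown overnight at 37°C or 30°C. The library randomised all eight P1ex-region intron nucleotides, the intron lying in the knt kanamycin-resistance gene, and plates were LB agar with or without 25 μg/mL kanamycin plus 100 μg/mL carbenicillin, 50 μM IPTG and 0.2% rhamnose. Pooled colonies were amplicon-sequenced on an Illumina HiSeq 2500, and fitness is the DiMSum error-weighted combination of wild-type-normalised replicate fold changes, kanamycin versus none.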

Sequence	self-splicing fitness (ln) (30 °C)	self-splicing fitness (ln) (37 °C)
CCAAAGCAAUAUUACGAUCA	-2.94 ± 0.13	-3.1 ± 0.31
ACCAAGCAAUAUUACGGUAU	-3.45 ± 0.13	-0.475 ± 0.094
CGCCAGCAAUAUUACGACCC	-1.84 ± 0.21	-1.46 ± 0.39
UGUAAGCAAUAUUACGCGGU	-3.22 ± 0.21	-2.15 ± 0.29
CUUUAGCAAUAUUACGCAUU	-4.72 ± 0.31	-3.51 ± 0.23
CUUGAGCAAUAUUACGAUCG	-1.2 ± 0.16	-0.798 ± 0.23
UCUAAGCAAUAUUACGCCUG	-1.6 ± 0.13	-1.14 ± 0.2
UUCGAGCAAUAUUACGAGAA		-0.969 ± 0.32
AGCUAGCAAUAUUACGGAAU	-1.13 ± 0.16	-2.07 ± 0.27
CAUUAGCAAUAUUACGUGGA	-3.35 ± 0.19	-2.13 ± 0.13
UAACAGCAAUAUUACGGGGU	-4.16 ± 0.14	-2.2 ± 0.12
AAAAAGCAAUAUUACGCUCU	-1.08 ± 0.081	-0.167 ± 0.09
UCGUAGCAAUAUUACGAUAU	-3.38 ± 0.31	-1.85 ± 0.37
GGAGAGCAAUAUUACGUUUA	-3.83 ± 0.33	-2.03 ± 0.17
UUUCAGCAAUAUUACGGAUU	-1.63 ± 0.083	-0.55 ± 0.097
UAUGAGCAAUAUUACGUAAA	-3.46 ± 0.32	-1.59 ± 0.19
UUCCAGCAAUAUUACGCGGU	-3.42 ± 0.18	-2.54 ± 0.2
GAACAGCAAUAUUACGUCCG	-1.5 ± 0.13	-0.784 ± 0.17
UUUAAGCAAUAUUACGUGUU	-3.32 ± 0.2	-2.57 ± 0.22
UCGUAGCAAUAUUACGGCUG	-3.29 ± 0.13	-1.38 ± 0.14
UAAAAGCAAUAUUACGCUAA	-1.86 ± 0.14	-0.863 ± 0.13
CACAAGCAAUAUUACGCGAG	-1.89 ± 0.092	-0.699 ± 0.091
CCCAAGCAAUAUUACGAUCA	-3.67 ± 0.26	-2.57 ± 0.16
CGUAAGCAAUAUUACGGUCU	-2.56 ± 0.092	-1.46 ± 0.081

Sequence	self-splicing fitness (ln) (30 °C)	self-splicing fitness (ln) (37 °C)
AUCUAGCAAUAUUACGCGCU	-1.97 ± 0.23	-0.909 ± 0.2
ACGCAGCAAUAUUACGACCC	-1.66 ± 0.18	-0.0893 ± 0.28
UUGCAGCAAUAUUACGCAAA	-1.35 ± 0.21	-2.35 ± 0.39
GGUCAGCAAUAUUACGAGUC	-1.51 ± 0.09	-0.893 ± 0.1
UCUAAGCAAUAUUACGACUG	-0.955 ± 0.17	-0.205 ± 0.23
UACCAGCAAUAUUACGGUGU	-3.64 ± 0.14	-2.36 ± 0.13
CUUAAGCAAUAUUACGUAGU	-3.14 ± 0.13	-2.3 ± 0.18
ACCAAGCAAUAUUACGUGCU	-1.7 ± 0.096	-0.864 ± 0.096
CAACAGCAAUAUUACGGUAC	-4.95 ± 0.28	-3.34 ± 0.22
CGAAAGCAAUAUUACGGAUG	-0.462 ± 0.066	-0.00232 ± 0.091
UGGUAGCAAUAUUACGAAGG	-2.95 ± 0.28	-1.39 ± 0.24
UUCCAGCAAUAUUACGCCCA	-1.38 ± 0.18	-0.115 ± 0.17
GCCUAGCAAUAUUACGUGUU	-0.926 ± 0.042	0.15 ± 0.055
UAUAAGCAAUAUUACGUAUA	-2.77 ± 0.21	-0.986 ± 0.17
UGCGAGCAAUAUUACGGCAG	-1.33 ± 0.15	-1.59 ± 0.21
GAAGAGCAAUAUUACGUACA	-3.17 ± 0.2	-2.7 ± 0.18
UCCUAGCAAUAUUACGAUAU	-3.78 ± 0.28	-2.72 ± 0.23
GGUAAGCAAUAUUACGUAGU	-1.48 ± 0.11	-1.46 ± 0.17
CCAGAGCAAUAUUACGACCG	-0.53 ± 0.14	-0.622 ± 0.22
UAUGAGCAAUAUUACGCAGA	-3.3 ± 0.29	-2.6 ± 0.23
CCUGAGCAAUAUUACGGUUC	-3.21 ± 0.23	-3.06 ± 0.4
GCUGAGCAAUAUUACGACUC	-0.148 ± 0.2	-0.469 ± 0.21
GCGGAGCAAUAUUACGGUCU	-3.04 ± 0.44	-2.35 ± 0.36
GCCAAGCAAUAUUACGAGUU	-1.7 ± 0.066	-0.45 ± 0.08

Sequence	self-splicing fitness (ln) (30 °C)	self-splicing fitness (ln) (37 °C)
ACUAAGCAAUAUUACGAAGA	-1.65 ± 0.17	-1.29 ± 0.18
ACGAAGCAAUAUUACGUCCU	-0.493 ± 0.083	-0.288 ± 0.11
UCUGAGCAAUAUUACGCAAC		-2.24 ± 0.29
UAGGAGCAAUAUUACGCCAA	-3.23 ± 0.4	-2.13 ± 0.42
UGCAAGCAAUAUUACGGGUG	-0.825 ± 0.051	-0.33 ± 0.065
ACUCAGCAAUAUUACGACAU	-0.385 ± 0.011	0.0786 ± 0.032
AGGGAGCAAUAUUACGGCCA	-2.33 ± 0.33	-0.91 ± 0.31
UCCCAGCAAUAUUACGUAUU	-2.91 ± 0.2	-3.28 ± 0.28
UUCUAGCAAUAUUACGUCAA	-1.21 ± 0.13	-1.43 ± 0.16
GGCUAGCAAUAUUACGGUAU	-0.65 ± 0.061	0.376 ± 0.084
GUGAAGCAAUAUUACGAUGA	-0.639 ± 0.075	0.631 ± 0.093
UACUAGCAAUAUUACGCGUC	-2.73 ± 0.14	-1.81 ± 0.14
GUCUAGCAAUAUUACGAACA	-1.13 ± 0.13	-0.831 ± 0.11
AAGUAGCAAUAUUACGCAUU	-2.16 ± 0.14	-0.921 ± 0.14
UUAUAGCAAUAUUACGCAAG	-1.35 ± 0.16	-1.89 ± 0.19
CAGCAGCAAUAUUACGUUGU	-2.88 ± 0.1	-1.52 ± 0.13
GGAAAGCAAUAUUACGUAGU	-2.97 ± 0.11	-1.23 ± 0.088
AGGCAGCAAUAUUACGUCAG	-1.92 ± 0.12	-0.461 ± 0.12
AUGUAGCAAUAUUACGUUUG	-3.35 ± 0.23	-2.72 ± 0.25
GUGGAGCAAUAUUACGGGUG	-3.8 ± 0.37	-2.9 ± 0.47
GGGCAGCAAUAUUACGGGCC	-2.96 ± 0.2	-2.66 ± 0.31
GUCUAGCAAUAUUACGCUAG	-2.97 ± 0.32	-2.31 ± 0.31
CACGAGCAAUAUUACGUGUC	-3.87 ± 0.2	-2.52 ± 0.14
AGCUAGCAAUAUUACGAGUG	-0.877 ± 0.066	-0.529 ± 0.084

Sequence	self-splicing fitness (ln) (30 °C)	self-splicing fitness (ln) (37 °C)
CACAAGCAAUAUUACGGAGU	-3.2 ± 0.13	-2.64 ± 0.15
GCCGAGCAAUAUUACGUUUA	-2.56 ± 0.17	0.181 ± 0.12
CUCCAGCAAUAUUACGUUCU	-2.89 ± 0.15	-3.65 ± 0.46
UUCUAGCAAUAUUACGCAAA	-0.225 ± 0.3	-1.23 ± 0.27
CUAUAGCAAUAUUACGACAA	-2.79 ± 0.5	-2.64 ± 0.44
CUAAAGCAAUAUUACGCGAA	-3.71 ± 0.25	-2.63 ± 0.36
UCGAAGCAAUAUUACGUCCA	-1.08 ± 0.13	-0.411 ± 0.14
UCACAGCAAUAUUACGGCGA	0.0998 ± 0.092	0.202 ± 0.094
CAUGAGCAAUAUUACGAGCC	-3.05 ± 0.41	
AAGUAGCAAUAUUACGCACC	-1.16 ± 0.12	-0.367 ± 0.2
UGCAAGCAAUAUUACGAAGG	-1.6 ± 0.12	-1.47 ± 0.2
AAUGAGCAAUAUUACGCUAC	-3.12 ± 0.27	-2.84 ± 0.34
AGCAAGCAAUAUUACGCUUA	-2.94 ± 0.15	-1.71 ± 0.11
AUGUAGCAAUAUUACGCGUA	-1.66 ± 0.13	-0.708 ± 0.14
CAGAAGCAAUAUUACGGGCG	-0.315 ± 0.089	-0.0188 ± 0.11
AGCUAGCAAUAUUACGCUGG	-3.58 ± 0.2	-2.31 ± 0.3
GCCGAGCAAUAUUACGGGUA	-1.36 ± 0.068	-0.505 ± 0.068
GACGAGCAAUAUUACGGGGU		-2.59 ± 0.25
AGCGAGCAAUAUUACGCGUA	-2.95 ± 0.34	-1.7 ± 0.18
ACUGAGCAAUAUUACGAUGU	-2.83 ± 0.14	-2.67 ± 0.2
AUACAGCAAUAUUACGGCUA	0.0244 ± 0.072	0.138 ± 0.082
GCAUAGCAAUAUUACGGUAC	-2.07 ± 0.097	-1.47 ± 0.091
GACGAGCAAUAUUACGUCGG		-1.96 ± 0.34
UCCCAGCAAUAUUACGGGCC	-3.03 ± 0.22	-1.7 ± 0.18
